Drawing on PMC5262380, “Structural insights into the mechanism of the DEAH-box RNA helicase Prp43” (eLife, 2017), this text covers Km and kcat for six proteins.

Substrate in data set [1]: Nc1ncnc2c1ncn2[C@@H]1O[C@H](COP(=O)(O)OP(=O)(O)OP(=O)(O)O)[C@@H](O)[C@H]1O
The experiment in a line: NADH-coupled ATPase assay (pyruvate kinase / lactate dehydrogenase). It counts as biochemical, Thermochaetoides thermophila. The note with it: no RNA, ctPfa1-GP in five-fold excess, pH 7.5, 150 mM KCl, 3 mM MgCl2, 25 °C. The source says: NADH-coupled ATPase assay (pyruvate kinase / lactate dehydrogenase) on ctPrp43 + ctPfa1-GP

Substrate in data set [2]: Nc1ncnc2c1ncn2[C@@H]1O[C@H](COP(=O)(O)OP(=O)(O)OP(=O)(O)O)[C@@H](O)[C@H]1O
Described as above. Format: biochemical, Thermochaetoides thermophila. The note with it: no RNA, no G-patch, pH 7.5, 150 mM KCl, 3 mM MgCl2, 25 °C. From the text: NADH-coupled ATPase assay (pyruvate kinase / lactate dehydrogenase) on ctPrp43

Where [3] appears, read: ctPrp43-IDSB, mainly oxidized (internal disulfide bond).

B1: ctPrp43 + ctPfa1-GP (Thermochaetoides thermophila DSM 1495; F181C/N623C) (protein)
chain: MADITKGTKRLSGEAEGSQDSKRVKTNGDKMDAKNPYLAHLEEKPEADFESLLDKLERRNTTAKQAEAVEDSDINPWTGQRHSERYFKILKARRKLPVNKQRQEFLDLYHNNQILVFVGETGSGKTTQIPQYVLYDELPHQTGKLIACTQPRRVAAMSVAQRVADELDVKLGEEVGYSIRCENKTSSKTLLKYMTDGQLLREAMHDRDMSRYSCIILDEAHERTLATDILMALLKQLSERRKDLKIIVMSATLDAQKFQSYFFNAPLLAVPGRTHPVEIFYTPEAERDYVEAAIRTVLQIHACEPEGDILLFLTGEEEIEDACRRISLEVDEMIRESDAGPMSVYPLYGTLPPHQQQRIFEKAPQPFRPGGRPGRKCIVATNIAETSLTIDGIVYVVDPGFSKQKIYNPRTRVESLLVSPISKASAQQRAGRAGRTRPGKCFRLYTEEAFKKELIEQTYPEILRSNLSNTVLELKKLGVEDLVHFDLMDPPAPETMMRALEELNYLACLDDDGELTPLGNLASEFPLDPALAVMLISSPEFYCSNEILSITSLLSVPQIWVRPANARKRADEMKAQFAHPDGDHLTLLNAYHAYKGAEARGEDMKKWCHEHFLSYRHLSSADCVRAQLKKIMETHGIELVSTPFHDKNYYTNIRRALLAGFFMQVAMRESSNSKVYKTVKDEQLVLIHPSTTVTTPYEWVVYNEFVLTTKQYVRTVTNIRPEWLLEIAPVYYDLSTFQKGEIKNALTRVAEKIRRQQAMKASKA
notes: full-length Prp43 (GST tag removed) plus G-patch fragment ctPfa1(662-742) in five-fold excess, both recombinant, tags cut; with Uncharacterized protein (G-patch protein Pfa1)
As for B1, in data set [1] (setting [3]), the Km was determined as 29.04 ± 1.35 µM and the kcat was found to be 3.32 s⁻¹.

B2: ctPrp43 (Thermochaetoides thermophila DSM 1495; T350G/Y348G) (protein)
chain: MADITKGTKRLSGEAEGSQDSKRVKTNGDKMDAKNPYLAHLEEKPEADFESLLDKLERRNTTAKQAEAVEDSDINPWTGQRHSERYFKILKARRKLPVNKQRQEFLDLYHNNQILVFVGETGSGKTTQIPQYVLYDELPHQTGKLIACTQPRRVAAMSVAQRVADELDVKLGEEVGYSIRFENKTSSKTLLKYMTDGQLLREAMHDRDMSRYSCIILDEAHERTLATDILMALLKQLSERRKDLKIIVMSATLDAQKFQSYFFNAPLLAVPGRTHPVEIFYTPEAERDYVEAAIRTVLQIHACEPEGDILLFLTGEEEIEDACRRISLEVDEMIRESDAGPMSVYPLGGGLPPHQQQRIFEKAPQPFRPGGRPGRKCIVATNIAETSLTIDGIVYVVDPGFSKQKIYNPRTRVESLLVSPISKASAQQRAGRAGRTRPGKCFRLYTEEAFKKELIEQTYPEILRSNLSNTVLELKKLGVEDLVHFDLMDPPAPETMMRALEELNYLACLDDDGELTPLGNLASEFPLDPALAVMLISSPEFYCSNEILSITSLLSVPQIWVRPANARKRADEMKAQFAHPDGDHLTLLNAYHAYKGAEARGEDMKKWCHEHFLSYRHLSSADNVRAQLKKIMETHGIELVSTPFHDKNYYTNIRRALLAGFFMQVAMRESSNSKVYKTVKDEQLVLIHPSTTVTTPYEWVVYNEFVLTTKQYVRTVTNIRPEWLLEIAPVYYDLSTFQKGEIKNALTRVAEKIRRQQAMKASKA
notes: full length (residues 1-764), recombinant, GST tag removed, expressed as previously described
As to B2, in data set [2] (ctPrp43-HL), the Km was 14.31 ± 0.71 µM and the kcat is 0.103 s⁻¹.

B3: ctPrp43 (Thermochaetoides thermophila DSM 1495; F181G/R180G/T350G/Y348G) (protein)
chain: MADITKGTKRLSGEAEGSQDSKRVKTNGDKMDAKNPYLAHLEEKPEADFESLLDKLERRNTTAKQAEAVEDSDINPWTGQRHSERYFKILKARRKLPVNKQRQEFLDLYHNNQILVFVGETGSGKTTQIPQYVLYDELPHQTGKLIACTQPRRVAAMSVAQRVADELDVKLGEEVGYSIGGENKTSSKTLLKYMTDGQLLREAMHDRDMSRYSCIILDEAHERTLATDILMALLKQLSERRKDLKIIVMSATLDAQKFQSYFFNAPLLAVPGRTHPVEIFYTPEAERDYVEAAIRTVLQIHACEPEGDILLFLTGEEEIEDACRRISLEVDEMIRESDAGPMSVYPLGGGLPPHQQQRIFEKAPQPFRPGGRPGRKCIVATNIAETSLTIDGIVYVVDPGFSKQKIYNPRTRVESLLVSPISKASAQQRAGRAGRTRPGKCFRLYTEEAFKKELIEQTYPEILRSNLSNTVLELKKLGVEDLVHFDLMDPPAPETMMRALEELNYLACLDDDGELTPLGNLASEFPLDPALAVMLISSPEFYCSNEILSITSLLSVPQIWVRPANARKRADEMKAQFAHPDGDHLTLLNAYHAYKGAEARGEDMKKWCHEHFLSYRHLSSADNVRAQLKKIMETHGIELVSTPFHDKNYYTNIRRALLAGFFMQVAMRESSNSKVYKTVKDEQLVLIHPSTTVTTPYEWVVYNEFVLTTKQYVRTVTNIRPEWLLEIAPVYYDLSTFQKGEIKNALTRVAEKIRRQQAMKASKA
notes: as for B2
Consider B3, for which, in data set [2] (ctPrp43-HT&HL), the Km is on record as 16.72 ± 1.49 µM and the kcat came out at 0.127 s⁻¹.

B4: ctPrp43 + ctPfa1-GP (Thermochaetoides thermophila DSM 1495; T350G/Y348G) (protein)
chain: MADITKGTKRLSGEAEGSQDSKRVKTNGDKMDAKNPYLAHLEEKPEADFESLLDKLERRNTTAKQAEAVEDSDINPWTGQRHSERYFKILKARRKLPVNKQRQEFLDLYHNNQILVFVGETGSGKTTQIPQYVLYDELPHQTGKLIACTQPRRVAAMSVAQRVADELDVKLGEEVGYSIRFENKTSSKTLLKYMTDGQLLREAMHDRDMSRYSCIILDEAHERTLATDILMALLKQLSERRKDLKIIVMSATLDAQKFQSYFFNAPLLAVPGRTHPVEIFYTPEAERDYVEAAIRTVLQIHACEPEGDILLFLTGEEEIEDACRRISLEVDEMIRESDAGPMSVYPLGGGLPPHQQQRIFEKAPQPFRPGGRPGRKCIVATNIAETSLTIDGIVYVVDPGFSKQKIYNPRTRVESLLVSPISKASAQQRAGRAGRTRPGKCFRLYTEEAFKKELIEQTYPEILRSNLSNTVLELKKLGVEDLVHFDLMDPPAPETMMRALEELNYLACLDDDGELTPLGNLASEFPLDPALAVMLISSPEFYCSNEILSITSLLSVPQIWVRPANARKRADEMKAQFAHPDGDHLTLLNAYHAYKGAEARGEDMKKWCHEHFLSYRHLSSADNVRAQLKKIMETHGIELVSTPFHDKNYYTNIRRALLAGFFMQVAMRESSNSKVYKTVKDEQLVLIHPSTTVTTPYEWVVYNEFVLTTKQYVRTVTNIRPEWLLEIAPVYYDLSTFQKGEIKNALTRVAEKIRRQQAMKASKA
notes: as for B1
In the case of B4, in data set [1] (ctPrp43-HL), the Km is on record as 14.38 ± 0.89 µM and the kcat amounted to 1.44 s⁻¹.

B5: ctPrp43 + ctPfa1-GP (Thermochaetoides thermophila DSM 1495; F181G/R180G/T350G/Y348G) (protein)
chain: MADITKGTKRLSGEAEGSQDSKRVKTNGDKMDAKNPYLAHLEEKPEADFESLLDKLERRNTTAKQAEAVEDSDINPWTGQRHSERYFKILKARRKLPVNKQRQEFLDLYHNNQILVFVGETGSGKTTQIPQYVLYDELPHQTGKLIACTQPRRVAAMSVAQRVADELDVKLGEEVGYSIGGENKTSSKTLLKYMTDGQLLREAMHDRDMSRYSCIILDEAHERTLATDILMALLKQLSERRKDLKIIVMSATLDAQKFQSYFFNAPLLAVPGRTHPVEIFYTPEAERDYVEAAIRTVLQIHACEPEGDILLFLTGEEEIEDACRRISLEVDEMIRESDAGPMSVYPLGGGLPPHQQQRIFEKAPQPFRPGGRPGRKCIVATNIAETSLTIDGIVYVVDPGFSKQKIYNPRTRVESLLVSPISKASAQQRAGRAGRTRPGKCFRLYTEEAFKKELIEQTYPEILRSNLSNTVLELKKLGVEDLVHFDLMDPPAPETMMRALEELNYLACLDDDGELTPLGNLASEFPLDPALAVMLISSPEFYCSNEILSITSLLSVPQIWVRPANARKRADEMKAQFAHPDGDHLTLLNAYHAYKGAEARGEDMKKWCHEHFLSYRHLSSADNVRAQLKKIMETHGIELVSTPFHDKNYYTNIRRALLAGFFMQVAMRESSNSKVYKTVKDEQLVLIHPSTTVTTPYEWVVYNEFVLTTKQYVRTVTNIRPEWLLEIAPVYYDLSTFQKGEIKNALTRVAEKIRRQQAMKASKA
notes: as for B1
For B5, in data set [1] (ctPrp43-HT&HL), the Km was 25.17 ± 1.37 µM and the kcat came out at 1.89 s⁻¹.

B6: ctPrp43 (Thermochaetoides thermophila DSM 1495; F181C/N623C) (protein)
chain: MADITKGTKRLSGEAEGSQDSKRVKTNGDKMDAKNPYLAHLEEKPEADFESLLDKLERRNTTAKQAEAVEDSDINPWTGQRHSERYFKILKARRKLPVNKQRQEFLDLYHNNQILVFVGETGSGKTTQIPQYVLYDELPHQTGKLIACTQPRRVAAMSVAQRVADELDVKLGEEVGYSIRCENKTSSKTLLKYMTDGQLLREAMHDRDMSRYSCIILDEAHERTLATDILMALLKQLSERRKDLKIIVMSATLDAQKFQSYFFNAPLLAVPGRTHPVEIFYTPEAERDYVEAAIRTVLQIHACEPEGDILLFLTGEEEIEDACRRISLEVDEMIRESDAGPMSVYPLYGTLPPHQQQRIFEKAPQPFRPGGRPGRKCIVATNIAETSLTIDGIVYVVDPGFSKQKIYNPRTRVESLLVSPISKASAQQRAGRAGRTRPGKCFRLYTEEAFKKELIEQTYPEILRSNLSNTVLELKKLGVEDLVHFDLMDPPAPETMMRALEELNYLACLDDDGELTPLGNLASEFPLDPALAVMLISSPEFYCSNEILSITSLLSVPQIWVRPANARKRADEMKAQFAHPDGDHLTLLNAYHAYKGAEARGEDMKKWCHEHFLSYRHLSSADCVRAQLKKIMETHGIELVSTPFHDKNYYTNIRRALLAGFFMQVAMRESSNSKVYKTVKDEQLVLIHPSTTVTTPYEWVVYNEFVLTTKQYVRTVTNIRPEWLLEIAPVYYDLSTFQKGEIKNALTRVAEKIRRQQAMKASKA
notes: as for B2
Regarding B6, in data set [2] (setting [3]), the Km came to 16.23 ± 2.38 µM and the kcat was 0.084 s⁻¹.
